Key:
[1] = molecular target: 212579 E38HS (human); assay: SPR; Biacore 1K+; purified IgG captured (about 100 RU) on anti-human IgG (Fc) on a CM5 chip; Phl p 5 injected at 1.875-60 nM, 25 uL/min, 120 s, 1360 s dissociation; PBS with 0.02% Tween 20; 1:1 Langmuir model
[2] = molecular target: 212579 G62HS (human); assay: as above
[3] = molecular target: 212579 I29LV, T40LA, V108LG (human); assay: as above
[4] = molecular target: 212579 I53HV (human); assay: as above
[5] = molecular target: 212579 I53HV, I29LV, T40LA, V108LG (human); assay: as above
[6] = molecular target: 212579 T40HN (human); assay: as above
[7] = molecular target: 212579 T40HN, I29LV, T40LA, V108LG (human); assay: as above
[8] = molecular target: 212579 T40HN, I53HV (human); assay: as above
[9] = molecular target: 212579 T40HN, I53HV, H113HY (human); assay: as above
[10] = molecular target: 212579 H113HY (human); assay: SPR; Biacore 1K+; antibody 212579 H113HY captured from culture supernatant without prior purification on anti-human IgG (Fc) on a CM5 chip; Phl p 5 injected at 1.875-60 nM; PBS with 0.02% Tween 20; 1:1 Langmuir model

Phl p 5.0101 (natural protein)
Kd [1]: 9.9 nM
koff [1]: 0.00273 s⁻¹
kon [1]: 280000 M⁻¹ s⁻¹
Kd [2]: 0.27 nM
koff [2]: 0.00011 s⁻¹
kon [2]: 420000 M⁻¹ s⁻¹
Kd [3]: 1.5 nM
koff [3]: 0.00035 s⁻¹
kon [3]: 230000 M⁻¹ s⁻¹
Kd [4]: 0.31 nM
koff [4]: 0.00013 s⁻¹
kon [4]: 420000 M⁻¹ s⁻¹
Kd [5]: 1.5 nM
koff [5]: 0.00033 s⁻¹
kon [5]: 220000 M⁻¹ s⁻¹
Kd [6]: 0.49 nM
koff [6]: 0.00016 s⁻¹
kon [6]: 320000 M⁻¹ s⁻¹
Kd [7]: 4.3 nM
koff [7]: 0.0005 s⁻¹
kon [7]: 120000 M⁻¹ s⁻¹
Kd [8]: 0.56 nM
koff [8]: 0.00014 s⁻¹
Kd [9]: 0.92 nM
koff [9]: 0.00014 s⁻¹
kon [9]: 160000 M⁻¹ s⁻¹
Kd [10]: 1.4 nM
koff [10]: 0.00036 s⁻¹
kon [10]: 260000 M⁻¹ s⁻¹
